Experimental findings from article PMC10531985, “A Unique G-Quadruplex Aptamer: A Novel Approach for Cancer Cell Recognition, Cell Membrane Visualization, and RSV Infection Detection” are described below.

For data set [1], the target named is T1, nucleolin (NCL) (Homo sapiens, UniProt P19338 1-710). In words: SPR; 150 mM KCl; SPR: 10 mM HEPES, 150 mM KCl, 3 mM EDTA, pH 7.4, NCL on CM5 chip, temperature not stated; EMSA: 5x binding buffer listed as 40 mM Tris, 30 mM KCl, 1 mM MgCl2, 1 mM DTT, pH 8.0, 200 nM probe, room temperature 25 min, gel with 20 mM KCl at 4 C. As to conditions: protein: recombinant, parallel G4.
T1 sequence (P19338 whole entry): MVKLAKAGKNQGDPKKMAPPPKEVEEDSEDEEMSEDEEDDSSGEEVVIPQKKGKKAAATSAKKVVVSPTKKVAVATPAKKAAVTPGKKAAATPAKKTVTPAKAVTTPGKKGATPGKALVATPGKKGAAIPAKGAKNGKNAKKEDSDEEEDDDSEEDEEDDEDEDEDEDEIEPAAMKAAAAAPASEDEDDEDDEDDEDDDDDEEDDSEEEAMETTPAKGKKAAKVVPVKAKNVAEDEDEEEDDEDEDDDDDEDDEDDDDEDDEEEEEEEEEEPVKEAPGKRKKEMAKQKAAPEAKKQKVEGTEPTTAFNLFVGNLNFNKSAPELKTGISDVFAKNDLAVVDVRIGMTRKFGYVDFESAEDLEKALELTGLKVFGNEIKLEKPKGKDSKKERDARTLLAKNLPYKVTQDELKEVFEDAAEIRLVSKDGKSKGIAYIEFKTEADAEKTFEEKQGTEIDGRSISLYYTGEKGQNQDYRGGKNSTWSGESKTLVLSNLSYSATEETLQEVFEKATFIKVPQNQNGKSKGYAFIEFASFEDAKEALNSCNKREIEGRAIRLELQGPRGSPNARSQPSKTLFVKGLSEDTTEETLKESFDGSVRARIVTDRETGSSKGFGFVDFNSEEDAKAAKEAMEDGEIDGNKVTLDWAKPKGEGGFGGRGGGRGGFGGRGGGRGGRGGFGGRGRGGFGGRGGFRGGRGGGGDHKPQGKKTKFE

Data set [2] addresses T1, nucleolin (NCL). In words: SPR; up to 2 uM aptamer; SPR: 10 mM HEPES, 150 mM KCl, 3 mM EDTA, pH 7.4, NCL on CM5 chip, temperature not stated; EMSA: 5x binding buffer listed as 40 mM Tris, 30 mM KCl, 1 mM MgCl2, 1 mM DTT, pH 8.0, 200 nM probe, room temperature 25 min, gel with 20 mM KCl at 4 C. The note with it: protein: recombinant; no G4.
The target of data set [3] is T1, nucleolin (NCL). Put plainly: EMSA; K+; SPR: 10 mM HEPES, 150 mM KCl, 3 mM EDTA, pH 7.4, NCL on CM5 chip, temperature not stated; EMSA: 5x binding buffer listed as 40 mM Tris, 30 mM KCl, 1 mM MgCl2, 1 mM DTT, pH 8.0, 200 nM probe, room temperature 25 min, gel with 20 mM KCl at 4 C. As to conditions: protein: recombinant; label: 5'-FAM; parallel G4.

B1: Apt-3 (structured_RNA)
RNA: GUUAGGGUUUAUGGGAUUG
With B1, in the data set with nucleolin (NCL) [1], the Kd was determined as 20.4 nM.

B2: Apt-3 mutant (ssRNA)
RNA: GUUAGAGUUUAUGAGAUUG
For B2, the binding result in the data set with nucleolin (NCL) [2] is given as “no binding”.

B3: Apt-3-F (structured_RNA)
RNA: GUUAGGGUUUAUGGGAUUG
For B3, the equilibrium dissociation constant (Kd) with nucleolin (NCL) [3] was 77.1 nM; with nucleolin (NCL) [1] (label: 5'-FAM) it was 24.9 nM.
